Reference: article PMC2756654 (Journal of molecular biology, 2008)

Molecular target: the molecule itself
Experiment: unfolding kinetics by CD

B1: Human C6A/C111S SOD (Cu, Zn superoxide dismutase) (enzyme)
chain: not shown
koff: 0.000381 s⁻¹
